Tests used:
[1] = tested on: factor VIII expressed by F8-BDD (normal unmodified B-domain-deleted F8)
[2] = tested on: factor VIII expressed by F8-BDD-299
[3] = tested on: factor VIII expressed by F8-BDD-N8

Thrombin (FIIa)
activity of factor VIII after thrombin was added (substrate luminescence assay, every two minutes) [1]: the activity of factor VIII expressed by F8-BDD and F8-BDD-N8 is slightly increased
activity of factor VIII after thrombin was added (substrate luminescence assay, every two minutes) [2]: From the second minute, the activity of factor VIII expressed by F8-BDD-299 is significantly increased
activity of factor VIII after thrombin was added (substrate luminescence assay, every two minutes) [3]: the activity of factor VIII expressed by F8-BDD and F8-BDD-N8 is slightly increased
